Test results published in US20250027114.

Experiments:
[1] = tested on: T1, E2-12-ABE8e (Neisseria meningitidis); experiment: cell_activity; details: PAM N4YNC average, E. coli ABE-PPA; 33% on N4YND
T1 sequence: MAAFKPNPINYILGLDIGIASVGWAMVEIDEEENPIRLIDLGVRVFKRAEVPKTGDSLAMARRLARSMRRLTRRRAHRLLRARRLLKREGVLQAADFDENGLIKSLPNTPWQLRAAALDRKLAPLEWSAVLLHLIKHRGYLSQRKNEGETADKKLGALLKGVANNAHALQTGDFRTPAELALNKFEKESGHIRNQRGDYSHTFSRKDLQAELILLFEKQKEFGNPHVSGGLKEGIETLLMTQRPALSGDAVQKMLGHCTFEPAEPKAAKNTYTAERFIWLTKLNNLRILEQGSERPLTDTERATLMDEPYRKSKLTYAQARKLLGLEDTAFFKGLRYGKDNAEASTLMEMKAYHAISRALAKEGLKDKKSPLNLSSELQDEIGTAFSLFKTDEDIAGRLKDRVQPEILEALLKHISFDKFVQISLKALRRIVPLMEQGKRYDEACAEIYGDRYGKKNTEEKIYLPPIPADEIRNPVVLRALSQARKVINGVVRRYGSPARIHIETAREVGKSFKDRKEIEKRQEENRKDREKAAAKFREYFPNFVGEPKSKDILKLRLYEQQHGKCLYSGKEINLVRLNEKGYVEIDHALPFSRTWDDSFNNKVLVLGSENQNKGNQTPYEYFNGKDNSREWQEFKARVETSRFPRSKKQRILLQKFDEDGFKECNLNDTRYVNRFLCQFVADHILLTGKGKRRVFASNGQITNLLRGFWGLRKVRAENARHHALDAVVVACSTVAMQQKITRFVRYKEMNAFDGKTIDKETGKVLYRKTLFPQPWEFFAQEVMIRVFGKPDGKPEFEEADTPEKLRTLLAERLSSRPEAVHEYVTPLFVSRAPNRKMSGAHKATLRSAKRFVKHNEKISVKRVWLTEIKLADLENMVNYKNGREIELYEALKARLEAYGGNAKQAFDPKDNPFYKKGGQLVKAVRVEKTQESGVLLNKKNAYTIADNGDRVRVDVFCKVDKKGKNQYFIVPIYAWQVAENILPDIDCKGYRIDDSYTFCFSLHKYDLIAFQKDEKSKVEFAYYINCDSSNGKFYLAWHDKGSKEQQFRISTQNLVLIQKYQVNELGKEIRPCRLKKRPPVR

[2] = tested on: T2, Nme2Cas9 (Nme2-ABE8e) (Neisseria meningitidis); experiment: cell_activity; details: PAM N4YNC average, E. coli ABE-PPA; 14% on N4YND
T2 sequence: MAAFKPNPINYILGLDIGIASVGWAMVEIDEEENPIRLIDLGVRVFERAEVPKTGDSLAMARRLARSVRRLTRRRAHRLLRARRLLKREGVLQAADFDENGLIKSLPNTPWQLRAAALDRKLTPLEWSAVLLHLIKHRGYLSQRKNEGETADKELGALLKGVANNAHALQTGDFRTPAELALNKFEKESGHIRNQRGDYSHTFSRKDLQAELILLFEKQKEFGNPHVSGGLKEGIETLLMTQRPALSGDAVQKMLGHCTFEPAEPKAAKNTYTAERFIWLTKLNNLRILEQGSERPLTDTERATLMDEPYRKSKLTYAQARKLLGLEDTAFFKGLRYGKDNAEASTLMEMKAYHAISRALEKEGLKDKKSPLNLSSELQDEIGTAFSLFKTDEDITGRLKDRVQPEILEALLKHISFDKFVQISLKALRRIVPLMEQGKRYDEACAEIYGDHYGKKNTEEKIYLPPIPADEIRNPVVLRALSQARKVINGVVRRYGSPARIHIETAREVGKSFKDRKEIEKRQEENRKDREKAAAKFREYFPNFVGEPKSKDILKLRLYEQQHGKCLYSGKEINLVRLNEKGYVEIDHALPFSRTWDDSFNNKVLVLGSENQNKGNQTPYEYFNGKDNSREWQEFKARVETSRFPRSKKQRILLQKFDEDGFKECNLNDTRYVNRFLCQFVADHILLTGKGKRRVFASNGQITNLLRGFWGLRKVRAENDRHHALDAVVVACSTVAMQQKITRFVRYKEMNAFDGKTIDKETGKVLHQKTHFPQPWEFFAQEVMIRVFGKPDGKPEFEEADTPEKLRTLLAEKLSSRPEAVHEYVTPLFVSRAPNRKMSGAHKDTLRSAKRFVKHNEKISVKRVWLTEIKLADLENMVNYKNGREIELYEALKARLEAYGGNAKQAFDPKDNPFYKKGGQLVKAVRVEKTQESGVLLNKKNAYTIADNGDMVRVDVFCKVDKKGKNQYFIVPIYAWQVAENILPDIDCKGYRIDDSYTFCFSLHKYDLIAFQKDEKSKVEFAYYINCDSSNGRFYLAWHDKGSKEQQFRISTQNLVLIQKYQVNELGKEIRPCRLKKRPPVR

## AUGGCCCAGACUGAGCACGUGAGGUUGUAGCUCCCUUUCUCAUUUCGGAAACGAAAUGAGAACCGUUGCUACAAUAAGGCCGUCUGAAAAGAUGUGCCGCAACGCUCUGCCCCUUAAAGCUUCUGCUUUAAGGGGCAUCGUUUA / ATGGCCCAGACTGAGCACGTGA / TCACGTGCTCAGTCTGGGCCAT [ABE-PPA sgRNA ; ABE-PPA protospacer library target]
[1]
  activity (% A-to-G conversion): 58
[2]
  activity (% A-to-G conversion): 18
